{"source": "patent US20110135636A1", "about": "(SYMPHOGEN A S, published 2011)", "binders": {"B1": {"name": "antibody 1254 (antibody, human IgG1, kappa, V domains shown)", "VH": "EVQLVESGGGLVKPGGSLKLSCAASGFAYSTYDMSWVRQTPEKRLEWVAYISSGGDAAYYPDTVKGRFTISRDNAKNTLYLQMSSLKSEDTAMYYCARSRYGNYGDAMDYWGQGTSVTVSS", "VL": "DVVMTQTPLSLPVSLGDQASISCRSSQSLVHSNGNTYLHWYLQKPGQSPKLLLYKVSNRFSGVPDRFSGSGSGTDFTLKISRVESEDLGVYFCSQNTHVYTFGGGTKLEIKR", "notes": "Chimeric IgG1 kappa; also called mAb 1254"}, "B2": {"name": "Fab 992 (Fab, V domains shown, not shown: small tags and cut ends)", "VH": "EVQLQQPGSELVRPGASVKLSCKASGYTFTSYWMHWVKQRPGQGLEWIGNIYPGSRSTNYDEKFKSKATLTVDTSSSTAYMQLSSLTSEDSAVYYCTRNGDYYVSSGDAMDYWGQGTSVTVS", "VL": "DIQMTQTTSSLSASLGDRVTISCRTSQDIGNYLNWYQQKPDGTVKLLIYYTSRLHSGVPSRFSGSGSGTDFSLTINNVEQEDVATYFCQHYNTVPPTFGGGTKLEIKR"}, "B3": {"name": "Fab 1024 (Fab, V domains shown, not shown: small tags and cut ends)", "VH": "QVQLQQPGAELVEPGGSVKLSCKASGYTFTSHWMHWVKQRPGQGLEWIGEINPSSGRNNYNEKFKSKATLTVDKSSSTAYMQFSSLTSEDSAVYYCVRYYGYDEAMDYWGQGTSVTVS", "VL": "DIVMTQAAFSNPVTLGTSASISCRSSKSLLHSNGITYLYWYLQKPGQSPQLLIYQMSNLASGVPDRFSSSGSGTDFTLRISRVEAEDVGVYYCAQNLELPYTFGGGTKLEIKR"}}, "key": {"[1]": {"molecular_target": "T1, recombinant human EGFR extracellular domain with 6xHis (human, UniProt P00533 25-645)", "T1 construct": "In-house produced; also called 6xHis EGFR ECD; soluble human EGFR ECD; not shown: 6xHis tag", "test": "SPR competition, competitor 1254", "procedure": "(§1) SPR analysis was performed on a Biacore 3000 machine containing four flow cells. A CM5 Biacore chip was conjugated with 10,000 Resonance units (Ru) polyclonal anti-His antibody to flow cells 1-4 according to the manufacturer's instructions. […] Immediately after antigen injection the maximal binding of the Anti-EGFR mAb without competition was established in each flow cell during a reference run. Briefly 5 μl antibody at a concentration of 40 μg/ml was injected over all flow cells with captured EGFR followed by stripping of the antibody/antigen complex with a low pH acid wash (10 sec. contact time with 10 mM Glycine-HCl, pH2). After the determination of Anti-EGFR antibody maximal binding to each flow cell, a competition run was performed during the same Biacore cycle. Flow cells were first saturated with EGFR ECD antigen followed by injection of different reference antibodies or Anti-EGFR antibodies into separate flow cells using the same antigen saturating conditions as outlined above. This step was immediately followed by a second injection of Anti-EGFR antibody over the flow cell saturated with EGFR antigen and competition antibody to minimize the dissociation of either antigen or blocking antibody. Then the antibody/antigen complexes were stripped off with a low pH acid wash (10 sec. contact time with 10 mM Glycine-HCl, pH 2) and the whole cycle beginning with the reference run was repeated with a new Anti-EGFR antibody. The degree of inhibition of tested Anti-EGFR antibodies were determined by comparing the Ru max value of the individual Anti-EGFR antibody before and after competition by introduction of report points recorded two seconds before and after injection of each sample."}, "[2]": {"molecular_target": "T1, recombinant human EGFR extracellular …", "test": "SPR competition, competitor 1320", "procedure": "as §1"}, "[3]": {"molecular_target": "T1, recombinant human EGFR extracellular …", "test": "SPR competition, competitor 992 corr", "procedure": "as §1"}, "[4]": {"molecular_target": "T1, recombinant human EGFR extracellular …", "test": "SPR competition, competitor 1308", "procedure": "as §1"}, "[5]": {"molecular_target": "T1, recombinant human EGFR extracellular …", "test": "SPR competition, competitor 1260", "procedure": "as §1"}, "[6]": {"molecular_target": "T1, recombinant human EGFR extracellular …", "test": "SPR competition, competitor Vectibix", "procedure": "as §1"}, "[7]": {"molecular_target": "T1, recombinant human EGFR extracellular …", "test": "SPR competition, competitor 1042", "procedure": "as §1"}, "[8]": {"molecular_target": "T1, recombinant human EGFR extracellular …", "test": "SPR competition, competitor 1277", "procedure": "as §1"}, "[9]": {"molecular_target": "T1, recombinant human EGFR extracellular …", "test": "SPR competition, competitor 1030corr", "procedure": "as §1"}, "[10]": {"molecular_target": "T1, recombinant human EGFR extracellular …", "test": "SPR competition, competitor 1261", "procedure": "as §1"}, "[11]": {"molecular_target": "T1, recombinant human EGFR extracellular …", "test": "SPR competition, competitor Erbitux", "procedure": "as §1"}, "[12]": {"molecular_target": "T1, recombinant human EGFR extracellular …", "test": "SPR competition, competitor 1024", "procedure": "as §1"}, "[13]": {"molecular_target": "T1, recombinant human EGFR extracellular …", "test": "SPR competition, competitor 1347", "procedure": "as §1"}, "[14]": {"molecular_target": "T1, recombinant human EGFR extracellular …", "test": "SPR competition, competitor 1284", "procedure": "as §1"}, "[15]": {"molecular_target": "T1, recombinant human EGFR extracellular …", "test": "SPR competition, competitor 1208", "procedure": "as §1"}, "[16]": {"molecular_target": "T1, recombinant human EGFR extracellular …", "test": "SPR competition, competitor 1344", "procedure": "as §1"}, "[17]": {"molecular_target": "T2, Cynomolgus EGFR extracellular domain (Cynomolgus monkey (Macaca fascicularis), UniProt P55245 25-645 (rhesus entry))", "T2 construct": "Cloned without signal peptide; also called Cynomolgus rEGFR ECD; Cynomolgus EGFR ECD", "test": "ELISA on cynomolgus EGFR ECD (Example 10)", "procedure": "To verify that tested Anti-EGFR antibodies bound equally well to both Human and Cynomolgus EGFR ECD and accordingly warranting toxicology studies in Cynomolgus monkeys, serial four fold dilutions of antibodies beginning from 1 μg/ml were tested by ELISA for binding to recombinant Human and Cynomolgus EGFR ECD proteins. […] ELISA wells were coated with 50 μl/well of full length EGFR at a concentration of 1 μg/ml in PBS overnight at 4° C. The next morning wells were washed twice with PBS-T and blocked for one hour with 100 μl PBS-T-1% BSA at room temperature, followed by wash twice in PBS-T. Next 50 μl of serially diluted Anti-EGFR antibodies and control antibodies were added to wells and incubated for one hour at room temperature. After antibody incubation wells were washed five times with PBS-T, followed by incubation with 50 μl/well Streptavidin-HRP secondary reagent diluted 1:3000 in blocking buffer and incubation at room temperature for 30 min. Finally wells were washed five times with PBS-T and plates were developed by adding 50 μL/well TMB substrate and incubated at room temperature. After incubation the reaction was stopped by addition of 1 M H₂SO₄; 100 μl/well and plates were read at OD 450 nm."}, "[18]": {"molecular_target": "T1, recombinant human EGFR extracellular …", "test": "SPR competition, competitor 1257", "procedure": "as §1"}, "[19]": {"molecular_target": "T1, recombinant human EGFR extracellular …", "test": "SPR competition, competitor 1449", "procedure": "as §1"}, "[20]": {"molecular_target": "T1, recombinant human EGFR extracellular …", "test": "SPR (BIAcore 2000); IgG captured on anti-human Fc, soluble monovalent EGFR ECD injected", "procedure": "Kinetic analysis of the full length IgG antibodies of the invention was performed on a BIAcore 2000, employing an assay as described in (Canziani, Klakamp, et al. 2004, Anal. Biochem, 325:301-307) allowing measurement of monovalent affinities of whole IgG molecules against soluble antigen. […] The chip surface was regenerated in between cycles by stripping the captured antibody/antigen complexes with a 10 second injection of 100 mM H₃PO₄. […] The association rate constant (ka) and dissociation constant (kd) were evaluated globally from the generated sensograms with the BIA evaluation software 4.1 provided by the manufacturer."}, "[21]": {"molecular_target": "T3, EGFR-Fc (recombinant EGFR ECD-Fc chimera, R&D Systems 344-ER) (human, UniProt P00533 25-645)", "T3 construct": "extracellular domain; Bought; also called immobilized Human EGFR ECD; immobilized receptor; not shown: human IgG Fc", "test": "SPR (BIAcore 2000); Fab over immobilized EGFR ECD-Fc; Scatchard analysis"}, "[22]": {"molecular_target": "T4, full length human EGFR expressed on the cell surface (human, UniProt P00533 25-1210)", "T4 construct": "whole, on cells; also called EGFR on A431-NS cells; EGFR on HN5 cells", "test": "cell ELISA, Fab titrated on paraformaldehyde-fixed A431-NS cells", "procedure": "(§2) Cell ELISA: The relative binding affinities defined as the molar concentration giving the half maximal OD (ED50) were determined by antibody titrations on A431-NS cells. Briefly, 10,000 A431-NS cells were grown in 96 well ELISA plates containing DMEM with added 0.5% FCS and 1% P/S at 37° C., 5% CO₂ overnight. […] Then 50 μl of a secondary Goat-anti-Human (Fab specific) HRP conjugate diluted 1:5000 in DMEM containing 1% BSA was added and incubated on ice for 30 min. Finally wells were washed four times with PBS and plates developed by adding 50 μl/well TMB Plus substrate and read at 620 nm every 5-15-30 min. After incubation with substrate the reaction was stopped by addition of 1 M H₂SO₄ and absorbance read at 450 nm. The functional affinity expressed as ED50 values were calculated by subtraction of the average background binding with secondary reagent only, followed by normalization of the binding curves by plotting % maximal binding relative to each antibody tested."}, "[23]": {"molecular_target": "T4, full length human EGFR expressed on the …", "test": "cell ELISA, Fab titrated on paraformaldehyde-fixed A431-NS cells, against SPR", "procedure": "as §2"}, "[24]": {"molecular_target": "T4, full length human EGFR expressed on the …", "test": "cell ELISA, Fab titrated on paraformaldehyde-fixed A431-NS cells; given as ED50", "procedure": "as §2"}, "[25]": {"molecular_target": "T3, EGFR-Fc (recombinant EGFR ECD-Fc …)", "test": "SPR (BIAcore 2000); Fab over immobilized EGFR ECD-Fc"}, "[26]": {"molecular_target": "T4, full length human EGFR expressed on the …", "test": "cell ELISA, Fab on A431-NS cells", "procedure": "as §2"}}, "data": [{"binder": "B1", "values": [{"measurement": "% inhibition", "setting": "[1]", "value": 102, "unit": "%"}, {"measurement": "% inhibition", "setting": "[2]", "value": 6, "unit": "%"}, {"measurement": "% inhibition", "setting": "[3]", "value": 106, "unit": "%"}, {"measurement": "% inhibition", "setting": "[4]", "value": -2, "unit": "%"}, {"measurement": "% inhibition", "setting": "[5]", "value": 0, "unit": "%"}, {"measurement": "% inhibition", "setting": "[6]", "value": 96, "unit": "%"}, {"measurement": "% inhibition", "setting": "[7]", "value": 29, "unit": "%"}, {"measurement": "% inhibition", "setting": "[8]", "value": 99, "unit": "%"}, {"measurement": "% inhibition", "setting": "[9]", "value": 82, "unit": "%"}, {"measurement": "% inhibition", "setting": "[10]", "value": 6, "unit": "%"}, {"measurement": "% inhibition", "setting": "[11]", "value": 44, "unit": "%"}, {"measurement": "% inhibition", "setting": "[12]", "value": 6, "unit": "%"}, {"measurement": "% inhibition", "setting": "[13]", "value": 3, "unit": "%"}, {"measurement": "% inhibition", "setting": "[14]", "value": 6, "unit": "%"}, {"measurement": "% inhibition", "setting": "[15]", "value": 108, "unit": "%"}, {"measurement": "% inhibition", "setting": "[16]", "value": 4, "unit": "%"}, {"measurement": "binding result", "setting": "[17]", "value": "binds"}, {"measurement": "% inhibition", "setting": "[18]", "value": 7, "unit": "%"}, {"measurement": "% inhibition", "setting": "[19]", "value": 5, "unit": "%"}, {"measurement": "Kd", "setting": "[20]", "value": 12.7, "unit": "nM"}, {"measurement": "koff", "setting": "[20]", "value": 0.001, "unit": "s⁻¹"}, {"measurement": "kon", "setting": "[20]", "value": 81000, "unit": "M⁻¹ s⁻¹"}, {"measurement": "t1/2", "setting": "[20]", "value": 11.3, "unit": "min"}]}, {"binder": "B2", "values": [{"measurement": "Kd", "setting": "[21]", "value": 150, "unit": "nM"}, {"measurement": "Log ED50", "setting": "[22]", "value": 1}, {"measurement": "fold lower monovalent functional affinity value on cells than tested with BIAcore", "setting": "[23]", "value": "≥ 15", "unit": "fold"}, {"measurement": "EC50", "setting": "[24]", "value": 9.9, "unit": "nM"}, {"measurement": "t1/2", "setting": "[25]", "value": 0.2, "unit": "min"}]}, {"binder": "B3", "values": [{"measurement": "Log ED50", "setting": "[22]", "value": 0.3}, {"measurement": "EC50 (read off the curve)", "setting": "[26]", "value": "~2", "unit": "nM"}, {"measurement": "EC50", "setting": "[24]", "value": 2, "unit": "nM"}, {"measurement": "Kd", "setting": "[25]", "value": 25.6, "unit": "nM"}, {"measurement": "koff", "setting": "[25]", "value": 0.0049, "unit": "s⁻¹"}, {"measurement": "kon", "setting": "[25]", "value": 190000, "unit": "M⁻¹ s⁻¹"}, {"measurement": "t1/2", "setting": "[25]", "value": 2.3, "unit": "min"}]}]}
